PMC314469, “Protein Interaction Networks by Proteome Peptide Scanning” (PLoS Biology, 2004)

Key:
[1] = biological target: T1, amphyphisin SH3 (AMPH_HUMAN), P49418; experiment: SPOT array
T1 chain: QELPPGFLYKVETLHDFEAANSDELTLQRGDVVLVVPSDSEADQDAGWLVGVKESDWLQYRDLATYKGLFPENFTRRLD

[2] = biological target: endophilin SH3 (SH3G2_HUMAN), Q99962; experiment: SPOT array

B1: Q9BQ84 245-258 (peptide)
chain: SGMAFPRPKRPAPA
Binder B1 has a normalised SPOT signal, Boehringer light units (BLU); mean over the file's lines of this peptide [1] of 1310 and a normalised SPOT signal, Boehringer light units (BLU); mean over the file's lines of this peptide [2] of 629.

B2: O43257 105-118 (peptide)
chain: SAGPPSRPQRPFSA
For B2, the normalised SPOT signal, Boehringer light units (BLU); mean over the file's lines of this peptide [1] was 4230 and the normalised SPOT signal, Boehringer light units (BLU); mean over the file's lines of this peptide [2] was 2420.

B3: Q96SU4 326-339 (peptide)
chain: SGNSLKRPDTTESL
Work on B3 yielded a normalised SPOT signal, Boehringer light units (BLU); mean over the file's lines of this peptide [1] of 24.4 and a normalised SPOT signal, Boehringer light units (BLU); mean over the file's lines of this peptide [2] of 18.9.

B4: Q96IB8 451-464 (peptide)
chain: SGPDLRRPPTPAPW
B4 showed a normalised SPOT signal, Boehringer light units (BLU); mean over the file's lines of this peptide [1] of 39.4 and a normalised SPOT signal, Boehringer light units (BLU); mean over the file's lines of this peptide [2] of 39.1.

B5: P53539 130-143 (peptide)
chain: SGPGPARPARARPR
Binder B5 has a normalised SPOT signal, Boehringer light units (BLU); mean over the file's lines of this peptide [1] of 14900 and a normalised SPOT signal, Boehringer light units (BLU); mean over the file's lines of this peptide [2] of 17200.

B6: Q9UPN3 5307-5320 (peptide)
chain: SGSKLKRPTPTFHS
With B6 the normalised SPOT signal, Boehringer light units (BLU); mean over the file's lines of this peptide [1] was 41.6 and the normalised SPOT signal, Boehringer light units (BLU); mean over the file's lines of this peptide [2] was 40.3.

B7: Q9P189 81-95 (peptide)
chain: SGSRPRKPPPRKHT
In the case of B7, the normalised SPOT signal, Boehringer light units (BLU); mean over the file's lines of this peptide [1] is reported as 3680 and the normalised SPOT signal, Boehringer light units (BLU); mean over the file's lines of this peptide [2] is reported as 3720.

B8: Q9ULI4 780-793 (peptide)
chain: AAVAPSRPGREPQA
Work on B8 yielded a normalised SPOT signal, Boehringer light units (BLU); mean over the file's lines of this peptide [1] of 2520 and a normalised SPOT signal, Boehringer light units (BLU); mean over the file's lines of this peptide [2] of 418.

B9: Q92766 106-119 (peptide)
chain: SGTALLRPLRPKPP
With B9 the normalised SPOT signal, Boehringer light units (BLU); mean over the file's lines of this peptide [1] was 147 and the normalised SPOT signal, Boehringer light units (BLU); mean over the file's lines of this peptide [2] was 153.

B10: P16930 169-182 (peptide)
chain: SGTPIRRPMGQMKP
B10 was tested, and the normalised SPOT signal, Boehringer light units (BLU); mean over the file's lines of this peptide [1] was 3.3 and the normalised SPOT signal, Boehringer light units (BLU); mean over the file's lines of this peptide [2] was 148.

B11: P11362 439-452 (peptide)
chain: SGVLLVRPSRLSSS
Work on B11 yielded a normalised SPOT signal, Boehringer light units (BLU); mean over the file's lines of this peptide [1] of 7990 and a normalised SPOT signal, Boehringer light units (BLU); mean over the file's lines of this peptide [2] of 210.

B12: O95180 532-545 (peptide)
chain: SHGSPRRPGPEPGA
Work on B12 yielded a normalised SPOT signal, Boehringer light units (BLU); mean over the file's lines of this peptide [1] of 44.7 and a normalised SPOT signal, Boehringer light units (BLU); mean over the file's lines of this peptide [2] of 31.

B13: Q8TA97 483-497 (peptide)
chain: SHHPPDRPPDPFST
B13 gave a normalised SPOT signal, Boehringer light units (BLU); mean over the file's lines of this peptide [1] of 30.4 and a normalised SPOT signal, Boehringer light units (BLU); mean over the file's lines of this peptide [2] of 1390.

B14: O75097 1019-1032 (peptide)
chain: SALSLRRPHSGWSA
With B14 the normalised SPOT signal, Boehringer light units (BLU); mean over the file's lines of this peptide [1] was 27.1 and the normalised SPOT signal, Boehringer light units (BLU); mean over the file's lines of this peptide [2] was 47.4.

B15: P50570 773-787 (peptide)
chain: SIHPPGRPPAVRGP
B15 was tested, and the normalised SPOT signal, Boehringer light units (BLU); mean over the file's lines of this peptide [1] was 340 and the normalised SPOT signal, Boehringer light units (BLU); mean over the file's lines of this peptide [2] was 2730.

B16: Q14801 17-30 (peptide)
chain: SINLLSRPERGWEG
B16 showed a normalised SPOT signal, Boehringer light units (BLU); mean over the file's lines of this peptide [1] of 0 and a normalised SPOT signal, Boehringer light units (BLU); mean over the file's lines of this peptide [2] of 97.2.

B17: Q8TDT3 61-75 (peptide)
chain: SISFPTRPPLQAQI
Binder B17 has a normalised SPOT signal, Boehringer light units (BLU); mean over the file's lines of this peptide [1] of 61.2 and a normalised SPOT signal, Boehringer light units (BLU); mean over the file's lines of this peptide [2] of 162.

B18: Q96AN7 126-139 (peptide)
chain: SITQLRRPSQLLYP
B18 was tested, and the normalised SPOT signal, Boehringer light units (BLU); mean over the file's lines of this peptide [1] was 9.2 and the normalised SPOT signal, Boehringer light units (BLU); mean over the file's lines of this peptide [2] was 36.3.

B19: Q96RL7 600-613 (peptide)
chain: SIVEFFRPPKEVHL
B19 gave a normalised SPOT signal, Boehringer light units (BLU); mean over the file's lines of this peptide [1] of 164 and a normalised SPOT signal, Boehringer light units (BLU); mean over the file's lines of this peptide [2] of 98.5.

B20: P09848 409-422 (peptide)
chain: SIWDPRRPLNTTEG
B20 gave a normalised SPOT signal, Boehringer light units (BLU); mean over the file's lines of this peptide [1] of 10.9 and a normalised SPOT signal, Boehringer light units (BLU); mean over the file's lines of this peptide [2] of 41.8.

B21: Q9C0H4 580-593 (peptide)
chain: SKASLSRPGRRPLG
B21 showed a normalised SPOT signal, Boehringer light units (BLU); mean over the file's lines of this peptide [1] of 226 and a normalised SPOT signal, Boehringer light units (BLU); mean over the file's lines of this peptide [2] of 53.5.

B22: Q92777 445-459 (peptide)
chain: SKTPPQRPPPQGSL
In the case of B22, the normalised SPOT signal, Boehringer light units (BLU); mean over the file's lines of this peptide [1] is reported as 193 and the normalised SPOT signal, Boehringer light units (BLU); mean over the file's lines of this peptide [2] is reported as 2380.

B23: Q92777 445-459 (peptide)
chain: SKTPPQRPPPQGGP
In the case of B23, the normalised SPOT signal, Boehringer light units (BLU); mean over the file's lines of this peptide [1] is reported as 127 and the normalised SPOT signal, Boehringer light units (BLU); mean over the file's lines of this peptide [2] is reported as 1450.

B24: Q9HCG4 261-274 (peptide)
chain: SLALPRRPQNRDSI
In the case of B24, the normalised SPOT signal, Boehringer light units (BLU); mean over the file's lines of this peptide [1] is reported as 96.2 and the normalised SPOT signal, Boehringer light units (BLU); mean over the file's lines of this peptide [2] is reported as 866.

B25: P30084 9-23 (peptide)
chain: SARGPLRPPVRSPA
Binder B25 has a normalised SPOT signal, Boehringer light units (BLU); mean over the file's lines of this peptide [1] of 3810 and a normalised SPOT signal, Boehringer light units (BLU); mean over the file's lines of this peptide [2] of 1950.

B26: Q96RJ6 21-34 (peptide)
chain: SLASPRRPLLSDFA
Binder B26 has a normalised SPOT signal, Boehringer light units (BLU); mean over the file's lines of this peptide [1] of 78.6 and a normalised SPOT signal, Boehringer light units (BLU); mean over the file's lines of this peptide [2] of 1690.

B27: P21128 321-334 (peptide)
chain: SLSFIARPGKVSQL
B27 was tested, and the normalised SPOT signal, Boehringer light units (BLU); mean over the file's lines of this peptide [1] was 152 and the normalised SPOT signal, Boehringer light units (BLU); mean over the file's lines of this peptide [2] was 146.

B28: Q9BYK8 558-571 (peptide)
chain: SLEVIRRPETKVLI
For B28, the normalised SPOT signal, Boehringer light units (BLU); mean over the file's lines of this peptide [1] was 22.1 and the normalised SPOT signal, Boehringer light units (BLU); mean over the file's lines of this peptide [2] was 65.4.

B29: O95428 745-758 (peptide)
chain: SLHGPRRPQPGASG
In the case of B29, the normalised SPOT signal, Boehringer light units (BLU); mean over the file's lines of this peptide [1] is reported as 33.5 and the normalised SPOT signal, Boehringer light units (BLU); mean over the file's lines of this peptide [2] is reported as 256.

B30: Q99776 220-233 (peptide)
chain: SLKIFRRPRKLFMQ
B30 was tested, and the normalised SPOT signal, Boehringer light units (BLU); mean over the file's lines of this peptide [1] was 88.1 and the normalised SPOT signal, Boehringer light units (BLU); mean over the file's lines of this peptide [2] was 74.5.

B31: Q96RW7 70-83 (peptide)
chain: SLKRPKRPLFNFAL
With B31 the normalised SPOT signal, Boehringer light units (BLU); mean over the file's lines of this peptide [1] was 169 and the normalised SPOT signal, Boehringer light units (BLU); mean over the file's lines of this peptide [2] was 2170.

B32: Q9UPM8 1026-1039 (peptide)
chain: SLLDFIRPLKISSD
B32 gave a normalised SPOT signal, Boehringer light units (BLU); mean over the file's lines of this peptide [1] of 219 and a normalised SPOT signal, Boehringer light units (BLU); mean over the file's lines of this peptide [2] of 0.

B33: Q9H5L8 147-160 (peptide)
chain: SLMTPRRPLSTSEK
In the case of B33, the normalised SPOT signal, Boehringer light units (BLU); mean over the file's lines of this peptide [1] is reported as 70 and the normalised SPOT signal, Boehringer light units (BLU); mean over the file's lines of this peptide [2] is reported as 1480.

B34: O14746 231-244 (peptide)
chain: SLPLPKRPRRGAAP
B34 showed a normalised SPOT signal, Boehringer light units (BLU); mean over the file's lines of this peptide [1] of 5540 and a normalised SPOT signal, Boehringer light units (BLU); mean over the file's lines of this peptide [2] of 9620.

B35: Q9P0U4 231-244 (peptide)
chain: SLPRPRRPLPTQQQ
For B35, the normalised SPOT signal, Boehringer light units (BLU); mean over the file's lines of this peptide [1] was 509 and the normalised SPOT signal, Boehringer light units (BLU); mean over the file's lines of this peptide [2] was 3100.

B36: Q9UFD8 131-145 (peptide)
chain: SAVGPNRPPTVSQP
B36 gave a normalised SPOT signal, Boehringer light units (BLU); mean over the file's lines of this peptide [1] of 51.4 and a normalised SPOT signal, Boehringer light units (BLU); mean over the file's lines of this peptide [2] of 969.

B37: Q9Y6V0 260-274 (peptide)
chain: SLPSPSKPPIQQPT
For B37, the normalised SPOT signal, Boehringer light units (BLU); mean over the file's lines of this peptide [1] was 55.1 and the normalised SPOT signal, Boehringer light units (BLU); mean over the file's lines of this peptide [2] was 94.9.

B38: Q9P206 440-453 (peptide)
chain: SLRKLKRPPPPPRR
With B38 the normalised SPOT signal, Boehringer light units (BLU); mean over the file's lines of this peptide [1] was 78.1 and the normalised SPOT signal, Boehringer light units (BLU); mean over the file's lines of this peptide [2] was 199.

B39: Q9HCU4 2269-2282 (peptide)
chain: SLRVPKRPIINTPV
In the case of B39, the normalised SPOT signal, Boehringer light units (BLU); mean over the file's lines of this peptide [1] is reported as 53.7 and the normalised SPOT signal, Boehringer light units (BLU); mean over the file's lines of this peptide [2] is reported as 2480.

B40: Q9UHI4 161-175 (peptide)
chain: SLVLPSRPPIGLPP
B40 showed a normalised SPOT signal, Boehringer light units (BLU); mean over the file's lines of this peptide [1] of 40.4 and a normalised SPOT signal, Boehringer light units (BLU); mean over the file's lines of this peptide [2] of 72.4.

B41: O94848 219-232 (peptide)
chain: SMFFIRRPTLDINW
With B41 the normalised SPOT signal, Boehringer light units (BLU); mean over the file's lines of this peptide [1] was 58.5 and the normalised SPOT signal, Boehringer light units (BLU); mean over the file's lines of this peptide [2] was 744.

B42: Q9NZ56 228-242 (peptide)
chain: SMGPPSKPPDEEHR
B42 gave a normalised SPOT signal, Boehringer light units (BLU); mean over the file's lines of this peptide [1] of 49.6 and a normalised SPOT signal, Boehringer light units (BLU); mean over the file's lines of this peptide [2] of 44.5.
